Assay results taken from patent US20240287172A1 (SCIRHOM, published 2024).

What was measured:
hiR2-FL-I566A-T7 = molecular target: T1, hiR2-FL-I566A-T7 (human, UniProt Q6PJF5 1-856); experiment: FACS on MEF-DKO cells expressing the variant, 3 µg/ml antibody
T1 sequence: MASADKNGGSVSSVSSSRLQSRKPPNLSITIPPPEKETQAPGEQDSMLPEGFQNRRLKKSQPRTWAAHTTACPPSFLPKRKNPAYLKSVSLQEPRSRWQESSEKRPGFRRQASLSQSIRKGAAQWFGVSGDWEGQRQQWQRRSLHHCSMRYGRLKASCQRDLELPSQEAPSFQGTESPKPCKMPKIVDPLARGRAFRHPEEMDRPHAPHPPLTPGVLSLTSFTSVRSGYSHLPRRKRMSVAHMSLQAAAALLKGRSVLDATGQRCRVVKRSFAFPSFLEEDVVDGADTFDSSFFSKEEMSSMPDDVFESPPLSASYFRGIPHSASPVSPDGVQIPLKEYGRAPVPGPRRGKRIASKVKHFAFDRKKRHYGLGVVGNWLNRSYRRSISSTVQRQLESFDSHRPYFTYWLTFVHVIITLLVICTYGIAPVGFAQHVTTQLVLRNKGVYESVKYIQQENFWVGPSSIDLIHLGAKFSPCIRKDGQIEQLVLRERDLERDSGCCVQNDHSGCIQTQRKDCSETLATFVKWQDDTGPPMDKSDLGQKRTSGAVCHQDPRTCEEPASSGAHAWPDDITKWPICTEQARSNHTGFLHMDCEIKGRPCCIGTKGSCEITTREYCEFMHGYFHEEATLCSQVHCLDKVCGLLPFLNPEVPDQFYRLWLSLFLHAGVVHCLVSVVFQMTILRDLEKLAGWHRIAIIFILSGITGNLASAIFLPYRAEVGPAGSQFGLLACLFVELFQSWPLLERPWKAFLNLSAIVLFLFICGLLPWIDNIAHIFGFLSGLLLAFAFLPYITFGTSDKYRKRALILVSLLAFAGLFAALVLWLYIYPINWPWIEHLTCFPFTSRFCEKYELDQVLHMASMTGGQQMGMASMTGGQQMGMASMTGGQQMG
Method in brief: (§1)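 Two incubations on ice, each 1 hour: test antibody (3 μg/ml) or FACS buffer only, then PE anti-mouse F(ab′)2 at 1:100 in the dark. Centrifugation and washes used 4° C; staining quantified on a flow cytometer.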

hiR2-FL-K525A-T7 = molecular target: T2, hiR2-FL-K525A-T7 (human, UniProt Q6PJF5 1-856); experiment: as above
T2 sequence: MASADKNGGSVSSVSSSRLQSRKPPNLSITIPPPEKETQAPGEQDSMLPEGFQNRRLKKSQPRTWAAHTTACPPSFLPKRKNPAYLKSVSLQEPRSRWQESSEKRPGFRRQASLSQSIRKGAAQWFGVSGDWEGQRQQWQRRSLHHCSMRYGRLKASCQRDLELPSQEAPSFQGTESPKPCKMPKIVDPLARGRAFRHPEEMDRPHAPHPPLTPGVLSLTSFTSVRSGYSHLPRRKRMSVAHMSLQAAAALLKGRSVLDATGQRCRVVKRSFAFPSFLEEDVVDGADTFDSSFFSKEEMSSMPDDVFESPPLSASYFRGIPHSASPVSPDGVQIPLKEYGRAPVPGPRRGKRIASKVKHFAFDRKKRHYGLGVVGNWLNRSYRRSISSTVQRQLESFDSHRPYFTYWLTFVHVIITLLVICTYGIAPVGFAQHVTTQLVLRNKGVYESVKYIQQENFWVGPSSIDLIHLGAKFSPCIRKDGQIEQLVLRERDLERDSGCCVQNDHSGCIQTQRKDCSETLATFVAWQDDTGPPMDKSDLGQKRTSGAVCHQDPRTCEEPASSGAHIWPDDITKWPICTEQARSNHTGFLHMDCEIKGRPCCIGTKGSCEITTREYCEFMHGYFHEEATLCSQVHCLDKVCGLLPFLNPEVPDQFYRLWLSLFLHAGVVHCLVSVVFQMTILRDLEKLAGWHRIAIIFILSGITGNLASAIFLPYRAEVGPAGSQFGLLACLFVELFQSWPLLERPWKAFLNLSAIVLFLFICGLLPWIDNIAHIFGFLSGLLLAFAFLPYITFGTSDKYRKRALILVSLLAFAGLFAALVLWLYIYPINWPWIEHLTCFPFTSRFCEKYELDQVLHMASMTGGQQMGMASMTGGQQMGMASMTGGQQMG
Method in brief: as §1

Binder | loss of binding vs wild type (hiR2-FL-I566A-T7) | loss of binding vs wild type (hiR2-FL-K525A-T7)
antibody 34 (antibody, V domains shown, mouse IgG, kappa light chain; also called clone #34; purified antibody 34) VH: QVTLKESGPGILQPSQTLSLTCSFSGFSLSTFSLGVGWIRQSSGKGLEWLAHIWWDDEKYYNPALKSRLTISKDTSKNQVFLKIANVDAADTATYYCARAYYSKSYYALDYWGQGTSVTVSS VL: DIQMTQSPSSLSASLGERVSLTCRASQEISGYLSWLQQKPDGTIKRLIYAASTLDSGVPKRFSGSRSGSDYSLAISSLESEDFADYYCLQYANFPFTFGSGTKLEIK | ≥ 30% | –
antibody 48 (antibody, V domains shown, mouse IgG, kappa light chain; also called clone #48; purified antibody 48) VH: QVQLQQSGTELVRPGTSVKVSCKASGYAFTNYLIEWVKQRPGQGLEWIGVINPGSGFTKYNEKFKGKATLTADKSSSTVYMHLSSLTSEDSAVYFCARGLYRAMDYWGQGTSVTVSS VL: DIQMTQSPASQSASLGESVTITCLASQTIATWLAWYQQKPGKSPQLLIYGATTLADGVPSRFSGGGSGTKFSFKISSLQAEDFVSYYCQQLYSTPYTFGGGTKLEIK | – | ≥ 30%
